One substance from US20120034161A1, “PRETARGETING KIT, METHOD AND AGENTS USED THEREIN” (KONINKLIJKE PHILIPS ELECTRONICS N.V., priority 2009, published 2012) can be followed below.

The data set deals with human colon cancer cell line LS174T. The note with it: mouse, in vivo.

Consider “Rtx-TCO: TCO-modified rituximab for control in vivo experiments; lacks specificity for TAG72”, for which the 125I-mAb in tumor was 6.3±1.2 % ID/g.
